PMC3048791
Values joined by “and” are separate entries in the source; they are usually repeats but may differ in a detail not shown here. Equal entries are not always repeated.

Biological target: recombinant ATcpnβ thermosome subunit from Acidianus tengchongensis strain S5 (Acidianus tengchongensis strain S5)
Experiment: cryo-EM structure

recombinant ATcpnβ thermosome subunit from Acidianus tengchongensis strain S5 (natural protein)
subunits per ring (symmetry of top views): 9 and 10
